Reference: patent publication US20250092426, “CAS ENDONUCLEASES AND RELATED METHODS” (Flagship Pioneering Innovations VII, LLC, published 2025)

Molecular target: T1, CasEnd-22 (synthetic construct)
T1 chain: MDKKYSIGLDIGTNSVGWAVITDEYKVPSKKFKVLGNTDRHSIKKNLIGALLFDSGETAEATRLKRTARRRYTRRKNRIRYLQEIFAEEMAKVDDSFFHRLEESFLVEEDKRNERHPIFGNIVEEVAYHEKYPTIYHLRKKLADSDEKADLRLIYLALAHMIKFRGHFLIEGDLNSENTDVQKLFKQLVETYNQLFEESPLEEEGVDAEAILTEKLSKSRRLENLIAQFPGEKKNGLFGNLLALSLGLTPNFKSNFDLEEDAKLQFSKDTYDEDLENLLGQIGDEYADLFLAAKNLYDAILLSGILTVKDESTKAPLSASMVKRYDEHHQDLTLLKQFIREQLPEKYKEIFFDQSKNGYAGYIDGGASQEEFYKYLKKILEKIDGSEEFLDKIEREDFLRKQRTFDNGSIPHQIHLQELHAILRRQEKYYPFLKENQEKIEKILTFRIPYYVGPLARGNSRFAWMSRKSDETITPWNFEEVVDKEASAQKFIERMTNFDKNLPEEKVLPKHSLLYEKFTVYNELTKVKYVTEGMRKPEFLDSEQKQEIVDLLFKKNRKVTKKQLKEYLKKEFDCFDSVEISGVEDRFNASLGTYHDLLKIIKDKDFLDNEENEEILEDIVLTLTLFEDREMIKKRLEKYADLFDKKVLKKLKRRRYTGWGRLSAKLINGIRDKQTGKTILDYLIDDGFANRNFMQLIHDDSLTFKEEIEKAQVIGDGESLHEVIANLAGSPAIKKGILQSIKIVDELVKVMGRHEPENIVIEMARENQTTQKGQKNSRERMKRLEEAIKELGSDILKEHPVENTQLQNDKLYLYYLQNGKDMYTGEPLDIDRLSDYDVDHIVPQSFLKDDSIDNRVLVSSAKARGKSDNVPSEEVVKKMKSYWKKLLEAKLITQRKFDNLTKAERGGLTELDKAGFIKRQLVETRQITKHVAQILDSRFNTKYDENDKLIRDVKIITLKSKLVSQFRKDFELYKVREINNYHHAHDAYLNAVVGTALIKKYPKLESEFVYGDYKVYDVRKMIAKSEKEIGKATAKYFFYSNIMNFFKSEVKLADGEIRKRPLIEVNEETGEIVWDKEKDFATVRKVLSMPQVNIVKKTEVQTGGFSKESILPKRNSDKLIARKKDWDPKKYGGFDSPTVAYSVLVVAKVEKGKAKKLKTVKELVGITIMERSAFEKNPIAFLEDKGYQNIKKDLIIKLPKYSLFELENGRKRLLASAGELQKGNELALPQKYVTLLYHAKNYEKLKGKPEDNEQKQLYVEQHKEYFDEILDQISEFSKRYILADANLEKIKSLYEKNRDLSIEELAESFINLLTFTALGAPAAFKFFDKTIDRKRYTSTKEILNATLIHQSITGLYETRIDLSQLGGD
Experiment: cell_activity; +++; K562, second nick guide SEQ 380; PAM not stated
Description: The ability of the candidate endonucleases, including endonucleases 1-38 (CasEnds 1-38) (set forth in Table 1 and SEQ ID NOS: 1-38, respectively), to mediate target nucleic acid editing in cells was assessed by amplicon sequencing of the endogenous hemoglobin subunit beta (eHBB) gene, wherein the percent of amplicons displaying the intended edit is measured. The editing system is comprised of a template RNA (designed to introduce the Single Nucleotide Polymorphism), a second nick guide RNA, and a fusion protein consisting of retroviral reverse transcriptase and the individual subject Cas endonuclease.
Briefly, 250 ng of plasmid DNA encoding the subject fusion protein (containing one of the subject CasEnds), 250 ng each of plasmid DNA encoding the template RNA and the second nick guide RNA were added to 15 μL Lonza SF buffer containing 250,000 K562 cells. Nucleofection was mediated utilizing program FF-120-DA on a Lonza nucleofector. The day of nucleofection was marked as day 0. At day 3, the cells were harvested and subjected to lysis buffer treatment overnight. Genomic DNA was extracted and used for targeted amplicon sequencing to evaluate the performance of each Cas endonucleases based on their percent edit efficiencies.

B1: HBB template RNA ; HBB protospacer (ssRNA ; dsDNA)
RNA: CAUGGUGCACCUGACUCCUGGUUUUAGAGCUAGAAAUAGCAAGUUAAAAUAAGGCUAGUCCGUUAUCAACUUGAAAAAGUGGCACCGAGUCGGUGCACGGCAGACUUCUCUGCCGGAGUCAGGUGC
DNA 1: CATGGTGCACCTGACTCCTG
DNA 2: CAGGAGTCAGGTGCACCATG
With B1 the activity was ≥ 100 % of reference.
